Data as given in the RNAGym collection of RNA variant scans (doi:10.1101/gr.219683.116).

B1: mRNA-splicing (parent)
chain: AGUUGCUGCUGGGAGCUCCAGCACAGUGAAAUGGACAGAAGGGCAGAGCAA

Variants of: B1
Assay: exon inclusion enrichment index; higher = more inclusion; WT1 exon 5 minigene, HEK293

First: G5U G8U C9U G42C G43A
Second: G5U G8U C9U G42C G43C
The “exon inclusion enrichment index” value of the first is lower: 0.494 for the first, 0.708 for the second.

First: G5U G8U C9U G42C G43U
Second: G5U G8U C9U G42U
The “exon inclusion enrichment index” value of the first is higher: 0.515 for the first, 0.227 for the second.

First: G5U G8U C9U G42U G43A
Second: G5U G8U C9U G42U G43C
The “exon inclusion enrichment index” value of the first is higher: 0.451 for the first, 0.0971 for the second.

Going from G5U G8U C9U G42U G43U to G5U G8U C9U G43A, the “exon inclusion enrichment index” value rises from 0.409 to 0.671.

First: G5U G8U C9U G43A C44A
Second: G5U G8U C9U G43A C44G
The “exon inclusion enrichment index” value of the first is lower: 0.667 for the first, 0.749 for the second.

Compared with G5U G8U C9U G43A C44U, G5U G8U C9U G43C is higher in “exon inclusion enrichment index” value: 0.177 for the first, 0.199 for the second.

First: G5U G8U C9U G43C C44A
Second: G5U G8U C9U G43C C44G
The “exon inclusion enrichment index” value of the first is lower: 0.722 for the first, 1.3 for the second.

First: G5U G8U C9U G43C C44U
Second: G5U G8U C9U G43U
The “exon inclusion enrichment index” value of the first is lower: 0.0876 for the first, 0.16 for the second.

Going from G5U G8U C9U G43U C44A to G5U G8U C9U G43U C44G, the “exon inclusion enrichment index” value rises from 0.0152 to 0.112.

Going from G5U G8U C9U G43U C44U to G5U G8U C9U G46A, the “exon inclusion enrichment index” value rises from 0.0283 to 0.192.

Compared with G5U G8U C9U G46A A47C, G5U G8U C9U G46A A47G is lower in “exon inclusion enrichment index” value: 0.466 for the first, 0.0611 for the second.

Compared with G5U G8U C9U G46A A47U, G5U G8U C9U G46C is lower in “exon inclusion enrichment index” value: 0.164 for the first, 0.148 for the second.

First: G5U G8U C9U G46C A47C
Second: G5U G8U C9U G46C A47G
The “exon inclusion enrichment index” value of the first is lower: 0.234 for the first, 0.306 for the second.

Going from G5U G8U C9U G46C A47U to G5U G8U C9U G46U, the “exon inclusion enrichment index” value falls from 0.15 to 0.0708.

Going from G5U G8U C9U G46U A47C to G5U G8U C9U G46U A47G, the “exon inclusion enrichment index” value falls from 0.55 to 0.0739.

Going from G5U G8U C9U G46U A47U to G5U G8U C9U G48A, the “exon inclusion enrichment index” value rises from 0.164 to 0.314.

Going from G5U G8U C9U G48C to G5U G8U C9U G48U, the “exon inclusion enrichment index” value falls from 0.251 to 0.22.

Going from G5U G8U C9U U10A to G5U G8U C9U U10A G11A, the “exon inclusion enrichment index” value rises from 0.00828 to 0.0324.

First: G5U G8U C9U U10A G11C
Second: G5U G8U C9U U10A G11U
The “exon inclusion enrichment index” value of the first is higher: 0.155 for the first, 0.0867 for the second.

Compared with G5U G8U C9U U10C, G5U G8U C9U U10C G11A is lower in “exon inclusion enrichment index” value: 0.561 for the first, 0.133 for the second.

First: G5U G8U C9U U10C G11C
Second: G5U G8U C9U U10C G11U
The “exon inclusion enrichment index” value of the first is higher: 0.932 for the first, 0.279 for the second.

Compared with G5U G8U C9U U10G, G5U G8U C9U U10G G11A is higher in “exon inclusion enrichment index” value: 0.095 for the first, 0.429 for the second.

First: G5U G8U C9U U10G G11C
Second: G5U G8U C9U U10G G11U
The “exon inclusion enrichment index” value of the first is higher: 0.742 for the first, 0.498 for the second.

First: G5U G8U C9U U17A
Second: G5U G8U C9U U17A C18A
The “exon inclusion enrichment index” value of the first is higher: 0.136 for the first, 0.0626 for the second.

Going from G5U G8U C9U U17A C18G to G5U G8U C9U U17A C18U, the “exon inclusion enrichment index” value falls from 0.0888 to 0.0627.

Compared with G5U G8U C9U U17C, G5U G8U C9U U17C C18A is lower in “exon inclusion enrichment index” value: 0.0866 for the first, 0.0484 for the second.

First: G5U G8U C9U U17C C18G
Second: G5U G8U C9U U17C C18U
The “exon inclusion enrichment index” value of the first is higher: 0.151 for the first, 0.0755 for the second.

First: G5U G8U C9U U17G
Second: G5U G8U C9U U17G C18A
The “exon inclusion enrichment index” value of the first is higher: 0.13 for the first, 0.124 for the second.

First: G5U G8U C9U U17G C18G
Second: G5U G8U C9U U17G C18U
The “exon inclusion enrichment index” value of the first is higher: 0.13 for the first, 0.0929 for the second.

First: G5U G8U C9U U27A
Second: G5U G8U C9U U27A G28A
The “exon inclusion enrichment index” value of the first is higher: 0.208 for the first, 0.173 for the second.

Going from G5U G8U C9U U27A G28C to G5U G8U C9U U27A G28U, the “exon inclusion enrichment index” value falls from 0.109 to 0.0328.

Going from G5U G8U C9U U27C to G5U G8U C9U U27C G28A, the “exon inclusion enrichment index” value falls from 0.478 to 0.135.

Going from G5U G8U C9U U27C G28C to G5U G8U C9U U27C G28U, the “exon inclusion enrichment index” value falls from 0.257 to 0.0729.

Going from G5U G8U C9U U27G to G5U G8U C9U U27G G28A, the “exon inclusion enrichment index” value rises from 0.0266 to 0.148.

Going from G5U G8U C9U U27G G28C to G5U G8U C9U U27G G28U, the “exon inclusion enrichment index” value falls from 0.027 to 0.000678.

First: G5U G8U C9U U32A
Second: G5U G8U C9U U32A G33A
The “exon inclusion enrichment index” value of the first is higher: 0.11 for the first, 0.0443 for the second.

Going from G5U G8U C9U U32A G33C to G5U G8U C9U U32A G33U, the “exon inclusion enrichment index” value falls from 0.219 to 0.0405.

Compared with G5U G8U C9U U32C, G5U G8U C9U U32C G33A is lower in “exon inclusion enrichment index” value: 0.344 for the first, 0.0483 for the second.

Compared with G5U G8U C9U U32C G33C, G5U G8U C9U U32C G33U is lower in “exon inclusion enrichment index” value: 0.216 for the first, 0.0499 for the second.

Compared with G5U G8U C9U U32G, G5U G8U C9U U32G G33A is higher in “exon inclusion enrichment index” value: 0.00207 for the first, 0.0116 for the second.

Going from G5U G8U C9U U32G G33C to G5U G8U C9U U32G G33U, the “exon inclusion enrichment index” value falls from 0.0926 to 0.0291.

For G5U G8U U10A, the “exon inclusion enrichment index” value was 0.444.
